Assay [1] concerns the target T1, human EpCAM antigen (SB, Cat: 10694-H08H) (human, UniProt P16422 24-265).
T1 construct: Bought antigen immobilised on a CM5 chip
T1 sequence (looked up): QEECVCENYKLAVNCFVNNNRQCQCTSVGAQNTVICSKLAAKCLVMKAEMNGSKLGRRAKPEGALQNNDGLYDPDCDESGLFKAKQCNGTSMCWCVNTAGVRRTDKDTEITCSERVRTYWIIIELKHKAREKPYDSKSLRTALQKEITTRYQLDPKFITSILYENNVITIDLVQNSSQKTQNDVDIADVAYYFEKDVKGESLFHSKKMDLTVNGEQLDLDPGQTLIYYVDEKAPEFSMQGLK
The assay is described as follows: SPR (Biacore T200), antigen amine-coupled on CM5, antibody as analyte, 1:1 fit; D14 sample after 14 days at 40 C. For orientation: Surface plasmon resonance follows binding to a sensor surface in real time, without labels.

Assay [2] has as its target T2, human EpCAM on the cell surface (human, UniProt P16422 24-314).
T2 sequence (looked up): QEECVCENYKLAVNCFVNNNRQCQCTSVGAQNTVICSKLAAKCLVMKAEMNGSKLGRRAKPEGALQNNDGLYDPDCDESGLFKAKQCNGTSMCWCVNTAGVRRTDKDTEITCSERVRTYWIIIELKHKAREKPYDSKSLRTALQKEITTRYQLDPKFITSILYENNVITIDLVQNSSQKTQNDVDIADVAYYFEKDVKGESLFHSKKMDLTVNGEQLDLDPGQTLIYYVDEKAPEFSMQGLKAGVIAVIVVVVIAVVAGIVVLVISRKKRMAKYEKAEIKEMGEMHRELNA
The assay is described as follows: cell-based or functional assay.

For assay [3], the target named is CD3 on Jurkat cells. The assay is described as follows: cell-based or functional assay.
Assay [4] deals with T2, human EpCAM on the cell surface. The assay can be described thus: cell-based or functional assay. This is another data set of the same source.
Assay [5] deals with CD3 on Jurkat cells. The assay is described as follows: cell-based or functional assay. This is another data set of the same source.
Assay [6] addresses T1, human EpCAM antigen (SB, Cat: …). The assay is described as follows: SPR (Biacore T200), antigen amine-coupled on CM5, antibody as analyte, 1:1 fit; D0 sample.
Assay [7] deals with T2, human EpCAM on the cell surface. The assay is described as follows: flow cytometry (FACS) on HCT116 cells, PE anti-human IgG Fc detection. For orientation: A flow cytometer gives signals particle by particle.
Assay [8] addresses T3, human CD3 antigen (SB, Cat: CT038-H2508H) (human, UniProt P07766 23-126; P04234 22-105). The assay can be described thus: SPR (Biacore T200), antigen amine-coupled on CM5, antibody as analyte, 1:1 fit; D0 sample.
Assay [9] addresses T3, human CD3 antigen (SB, Cat: …). The assay is described as follows: SPR (Biacore T200), antigen amine-coupled on CM5, antibody as analyte, 1:1 fit; D14 sample after 14 days at 40 C.
The target is the same in assay [10]. The assay can be described thus: SPR (Biacore T200), CD3 antigen amine-coupled on CM5, antibody as analyte, 1:1 fit.

B1: M701A (bispecific antibody, human IgG1, kappa)
light: ELVMTQSPSSLTVTAGEKVTMSCKSSQSLLNSGNQKNYLTWYQQKPGQPPKLLIYWASTRESGVPDRFTGSGSGTDFTLTISSVQAEDLAVYYCQNDYSYPLTFGAGTKLEIKRTVAAPSVFIFPPSDEQLKSGTASVVCLLNNFYPREAKVQWKVDNALQSGNSQESVTEQDSKDSTYSLSSTLTLSKADYEKHKVYACEVTHQGLSSPVTKSFNRGEC
heavy: EVQLLEQSGAELVRPGTSVKISCKASGYAFTNYWLGWVKQRPGHGLEWIGDIFPGSGNIHYNEKFKGKATLTADKSSSTAYMQLSSLTFEDSAVYFCARLRNWDEPMDYWGQGTTVTVSSASTKGPSVFPLAPSSKSTSGGTAALGCLVKDYFPEPVTVSWNSGALTSGVHTFPAVLQSSGLYSLSSVVTVPSSSLGTQTYICNVNHKPSNTKVDKKVEPKSCDKTHTCPPCPAPELLGGPSVFLFPPKPKDTLMISRTPEVTCVVVDVSHEDPEVKFNWYVDGVEVHNAKTKPREEQYNSTYRVVSVLTVLHQDWLNGKEYKCKVSNKALPAPIEKTISKAKGQPREPQVYTLPPSRDELTKNQVSLWCLVKGFYPSDIAVEWESNGQPENNYDTTPPVLDSDGSFFLYSDLTVDKSRWQQGNVFSCSVMHEALHNHYTQKSLSLSPGK
chain: not shown
notes: YBODY format; also called bispecific antibody M701A
As usually defined, the Kd is a measure of binding affinity in units of concentration. Broadly, the EC50 is the concentration that produces a half-maximal response. A higher EC50 goes with a need for much substance. For the molecule B1, the Kd in assay [1] was 0.0173 µM; in [6], 0.0171 µM. For the same molecule, the “cell bridging of HCT116 and Jurkat cells (CFSE/PKH26 double-positive cells, flow cytometry)” value (in assay [2]; with CD3 on Jurkat cells [3]) was ~40 % of the total PKH26-positive cells each time. The “EC50 (read off the curve), cell bridging of HCT116 and Jurkat [panel C]” value (in [4]; in the assay with CD3 on Jurkat cells [5]) was around 10 ng/mL throughout. The molecule also yielded a concentration giving a half-maximal response (EC50) in assay [7] of 0.00357 µM.

B2: M701J (bispecific antibody, human IgG1, kappa)
light: ELVMTQSPSSLTVTAGEKVTMSCKSSQSLLNSGNQKNYLTWYQQKPGQPPKLLIYWASTRESGVPDRFTGSGSGTDFTLTISSVQAEDLAVYYCQNDYSYPLTFGAGTKLEIKRTVAAPSVFIFPPSDEQLKSGTASVVCLLNNFYPREAKVQWKVDNALQSGNSQESVTEQDSKDSTYSLSSTLTLSKADYEKHKVYACEVTHQGLSSPVTKSFNRGEC
heavy: EVQLLEQSGAELVRPGTSVKISCKASGYAFTNYWLGWVKQRPGHGLEWIGDIFPGSGNIHYNEKFKGKATLTADKSSSTAYMQLSSLTFEDSAVYFCARLRNWDEPMDYWGQGTTVTVSSASTKGPSVFPLAPSSKSTSGGTAALGCLVKDYFPEPVTVSWNSGALTSGVHTFPAVLQSSGLYSLSSVVTVPSSSLGTQTYICNVNHKPSNTKVDKKVEPKSCDKTHTCPPCPAPPVAGPSVFLFPPKPKDTLMISRTPEVTCVVVDVSHEAPEVQFNWYVDGVEVHNAKTKPREEQFNSTFRVVSVLTVVHQDWLNGKEYKCKVSNKGLPAPIEKTISKTKGQPREPQVYTLPPCRDELTKNQVSLWCLVKGFYPSDIAVEWESNGQPENNYKTTPPVLDSDGSFFLYSKLTVDKSRWQQGNVFSCSVMHEALHNHYTQKSLSLSPGK
chain: not shown
notes: YBODY format; also called bispecific antibody M701J
Consider B2, for which the equilibrium dissociation constant (Kd) in assay [1] came out at 0.0187 µM; in [6] it was 0.0182 µM. Also, the response in [7] was half-maximal at 0.00378 µM (EC50).

B3: M701G (bispecific antibody, human IgG1, kappa)
light: ELVMTQSPSSLTVTAGEKVTMSCKSSQSLLNSGNQKNYLTWYQQKPGQPPKLLIYWASTRESGVPDRFTGSGSGTDFTLTISSVQAEDLAVYYCQNDYSYPLTFGAGTKLEIKRTVAAPSVFIFPPSDEQLKSGTASVVCLLNNFYPREAKVQWKVDNALQSGNSQESVTEQDSKDSTYSLSSTLTLSKADYEKHKVYACEVTHQGLSSPVTKSFNRGEC
heavy: EVQLLEQSGAELVRPGTSVKISCKASGYAFTNYWLGWVKQRPGHGLEWIGDIFPGSGNIHYNEKFKGKATLTADKSSSTAYMQLSSLTFEDSAVYFCARLRNWDEPMDYWGQGTTVTVSSASTKGPSVFPLAPSSKSTSGGTAALGCLVKDYFPEPVTVSWNSGALTSGVHTFPAVLQSSGLYSLSSVVTVPSSSLGTQTYICNVNHKPSNTKVDKKVEPKSCDKTHTCPPCPAPELLGGPSVFLFPPKPKDTLMISRTPEVTCVVVDVSHEDPEVKFNWYVDGVEVHNAKTKPREEQYNSTYRVVSVLTVLHQDWLNGKEYKCKVSNKALPAPIEKTISKAKGQPREPQVYTLPPSRDELTKNQVSLWCLVKGFYPSDIAVEWESNGQPENNYDTTPPVLDSDGSFFLYSDLTVDKSRWQQGNVFSCSVMHEALHNHYTQKSLSLSPGK
chain: EVQLVESGGGLVQPGGSLRLSCAASGYSFTGYTMNWVRQAPGKGLEWVALINPYKGVSTYNQKFKDRFTISVDKSKNTAYLQMNSLRAEDTAVYYCARSGYYGDSDWYFDVWGQGTLVTVSSGGGGSGGGGSGGGGSDIQMTQSPSSLSASVGDRVTITCRASQDIRNYLNWYQQKPGKAPKLLIYYTSRLESGVPSRFSGSGSGTDYTLTISSLQPEDFATYYCQQGNTLPWTFGQGTKVEIKGAAAEPKSCDKTHTCPPCPAPELLGGPSVFLFPPKPKDTLMISRTPEVTCVVVDVSHEDPEVKFNWYVDGVEVHNAKTKPREEQYNSTYRVVSVLTVLHQDWLNGKEYKCKVSNKALPAPIEKTISKAKGQPREPQVYTLPPSRDELTKNQVSLTCRVKGFYPSDIAVEWESNGQPENNYKTTPPVLKSDGSFFLASKLTVDKSRWQQGNVFSCSVMHEALHNHYTQKSLSLSPGK
notes: YBODY format; also called bispecific antibody M701G
For the molecule B3, the Kd in assay [8] was determined as 0.0188 µM; in assay [6], 0.0197 µM.

B4: M701K (bispecific antibody, human IgG1, kappa)
light: ELVMTQSPSSLTVTAGEKVTMSCKSSQSLLNSGNQKNYLTWYQQKPGQPPKLLIYWASTRESGVPDRFTGSGSGTDFTLTISSVQAEDLAVYYCQNDYSYPLTFGAGTKLEIKRTVAAPSVFIFPPSDEQLKSGTASVVCLLNNFYPREAKVQWKVDNALQSGNSQESVTEQDSKDSTYSLSSTLTLSKADYEKHKVYACEVTHQGLSSPVTKSFNRGEC
heavy: EVQLLEQSGAELVRPGTSVKISCKASGYAFTNYWLGWVKQRPGHGLEWIGDIFPGSGNIHYNEKFKGKATLTADKSSSTAYMQLSSLTFEDSAVYFCARLRNWDEPMDYWGQGTTVTVSSASTKGPSVFPLAPSSKSTSGGTAALGCLVKDYFPEPVTVSWNSGALTSGVHTFPAVLQSSGLYSLSSVVTVPSSSLGTQTYICNVNHKPSNTKVDKKVEPKSCDKTHTCPPCPAPPVAGPSVFLFPPKPKDTLMISRTPEVTCVVVDVSHEAPEVQFNWYVDGVEVHNAKTKPREEQFNSTFRVVSVLTVVHQDWLNGKEYKCKVSNKGLPAPIEKTISKTKGQPREPQVYTLPPCRDELTKNQVSLWCLVKGFYPSDIAVEWESNGQPENNYKTTPPVLDSDGSFFLYSKLTVDKSRWQQGNVFSCSVMHEALHNHYTQKSLSLSPGK
chain: QVQLVESGGGVVQPGRSLRLSCAASGFTFSTYAMNWVRQAPGKGLEWVARIRSKYNNYATYYADSVKDRFTISRDDSKNTLYLQMNSLRAEDTAVYYCARHGNFGNSYVSWFAYWGQGTLVTVSSGGGGSGGGGSGGGGSQTVVTQEPSLTVSPGGTVTLTCRSSTGAVTTSNYANWVQQKPGQAPRGLIGGTNKRAPGVPARFSGSLLGGKAALTLSGVQPEDEAEYYCALWYSNLWVFGGGTKVEIKGAAAEPKSCDKTHTCPPCPAPPVAGPSVFLFPPKPKDTLMISRTPEVTCVVVDVSHEAPEVQFNWYVDGVEVHNAKTKPREEQFNSTFRVVSVLTVVHQDWLNGKEYKCKVSNKGLPAPIEKTISKTKGQPREPQVCTLPPSRDELTKNQVSLSCAVKGFYPSDIAVEWESNGQPENNYKTTPPVLDSDGSFFLVSKLTVDKSRWQQGNVFSCSVMHEALHNHYTQKSLSLSPGK
notes: YBODY format; also called bispecific antibody M701K
In the case of B4, the equilibrium dissociation constant (Kd) in assay [9] worked out at 0.0306 µM; in [1], 0.0226 µM; in assay [10] it was 0.0288 µM; in assay [8], 0.0288 µM; in assay [6], 0.0211 µM. In [7], this molecule returned a half-maximal effective concentration (EC50) of 0.00565 µM.

B5: M701 (bispecific antibody, human IgG1, kappa)
light: ELVMTQSPSSLTVTAGEKVTMSCKSSQSLLNSGNQKNYLTWYQQKPGQPPKLLIYWASTRESGVPDRFTGSGSGTDFTLTISSVQAEDLAVYYCQNDYSYPLTFGAGTKLEIKRTVAAPSVFIFPPSDEQLKSGTASVVCLLNNFYPREAKVQWKVDNALQSGNSQESVTEQDSKDSTYSLSSTLTLSKADYEKHKVYACEVTHQGLSSPVTKSFNRGEC
heavy: EVQLLEQSGAELVRPGTSVKISCKASGYAFTNYWLGWVKQRPGHGLEWIGDIFPGSGNIHYNEKFKGKATLTADKSSSTAYMQLSSLTFEDSAVYFCARLRNWDEPMDYWGQGTTVTVSSASTKGPSVFPLAPSSKSTSGGTAALGCLVKDYFPEPVTVSWNSGALTSGVHTFPAVLQSSGLYSLSSVVTVPSSSLGTQTYICNVNHKPSNTKVDKKVEPKSCDKTHTCPPCPAPELLGGPSVFLFPPKPKDTLMISRTPEVTCVVVDVSHEDPEVKFNWYVDGVEVHNAKTKPREEQYNSTYRVVSVLTVLHQDWLNGKEYKCKVSNKALPAPIEKTISKAKGQPREPQVYTLPPSRDELTKNQVSLWCLVKGFYPSDIAVEWESNGQPENNYDTTPPVLDSDGSFFLYSDLTVDKSRWQQGNVFSCSVMHEALHNHYTQKSLSLSPGK
chain: not shown
notes: also called bispecific antibody M701
In the case of B5, the “killing EC50 (PBMC effector cells, HCT116 target cells)” value in [2] is 69.2 ng/mL. Moreover, the half-maximal effective concentration (EC50) in [7] amounted to 0.0105 µM.

(Values after patent publication US20250002605A1 (WUHAN YZY BIOPHARMA, published 2025).)
